Reference: patent US20250019680, “ENGINEERED CAS13 FOR ULTRASENSITIVE NUCLEIC ACID DETECTION” (William Marsh Rice University, published 2025)

Experiments:
[1] = target: T1, RBD #6L LwaCas13a (ADAR1 126-202 in Loop 1) (Leptotrichia wadei / Homo sapiens); test: cleavage_in_vitro; collateral cleavage of RNaseAlert, 30 min; details: label: body 32P for EMSA
T1 chain: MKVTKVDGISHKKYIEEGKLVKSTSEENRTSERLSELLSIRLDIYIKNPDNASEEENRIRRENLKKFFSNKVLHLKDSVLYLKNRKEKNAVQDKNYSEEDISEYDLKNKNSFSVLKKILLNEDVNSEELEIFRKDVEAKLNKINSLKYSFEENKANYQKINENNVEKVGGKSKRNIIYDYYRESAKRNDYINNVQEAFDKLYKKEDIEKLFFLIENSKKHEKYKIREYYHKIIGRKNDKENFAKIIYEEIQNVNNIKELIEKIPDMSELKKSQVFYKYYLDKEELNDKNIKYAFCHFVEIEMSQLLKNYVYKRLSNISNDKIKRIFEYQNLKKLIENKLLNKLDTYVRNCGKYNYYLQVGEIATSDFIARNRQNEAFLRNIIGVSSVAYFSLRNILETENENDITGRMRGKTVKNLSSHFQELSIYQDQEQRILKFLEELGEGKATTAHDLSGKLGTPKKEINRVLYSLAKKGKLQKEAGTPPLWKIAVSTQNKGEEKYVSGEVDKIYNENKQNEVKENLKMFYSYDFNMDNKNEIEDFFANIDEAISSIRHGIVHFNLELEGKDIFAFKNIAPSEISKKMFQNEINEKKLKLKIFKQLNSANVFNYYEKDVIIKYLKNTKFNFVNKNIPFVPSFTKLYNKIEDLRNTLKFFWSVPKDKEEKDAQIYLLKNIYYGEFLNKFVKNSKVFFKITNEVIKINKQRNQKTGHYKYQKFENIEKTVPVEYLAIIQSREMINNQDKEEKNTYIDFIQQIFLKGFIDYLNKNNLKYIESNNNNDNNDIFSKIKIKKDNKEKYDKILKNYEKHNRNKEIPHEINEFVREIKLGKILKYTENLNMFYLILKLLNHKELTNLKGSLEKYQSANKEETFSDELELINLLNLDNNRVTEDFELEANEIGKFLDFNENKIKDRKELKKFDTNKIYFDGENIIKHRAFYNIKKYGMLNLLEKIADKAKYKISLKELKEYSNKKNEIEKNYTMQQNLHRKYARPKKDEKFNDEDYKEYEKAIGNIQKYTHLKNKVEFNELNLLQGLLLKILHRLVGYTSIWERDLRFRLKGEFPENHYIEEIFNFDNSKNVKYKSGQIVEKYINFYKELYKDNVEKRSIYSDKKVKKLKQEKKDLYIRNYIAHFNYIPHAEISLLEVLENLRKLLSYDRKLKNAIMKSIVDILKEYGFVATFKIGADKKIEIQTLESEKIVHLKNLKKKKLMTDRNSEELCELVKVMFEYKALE

[2] = target: T2, RBD #1L LwaCas13a (ADAR1 708-801 in Loop 1) (Leptotrichia wadei / Homo sapiens); test: as above; details: label: body 32P for EMSA
T2 chain: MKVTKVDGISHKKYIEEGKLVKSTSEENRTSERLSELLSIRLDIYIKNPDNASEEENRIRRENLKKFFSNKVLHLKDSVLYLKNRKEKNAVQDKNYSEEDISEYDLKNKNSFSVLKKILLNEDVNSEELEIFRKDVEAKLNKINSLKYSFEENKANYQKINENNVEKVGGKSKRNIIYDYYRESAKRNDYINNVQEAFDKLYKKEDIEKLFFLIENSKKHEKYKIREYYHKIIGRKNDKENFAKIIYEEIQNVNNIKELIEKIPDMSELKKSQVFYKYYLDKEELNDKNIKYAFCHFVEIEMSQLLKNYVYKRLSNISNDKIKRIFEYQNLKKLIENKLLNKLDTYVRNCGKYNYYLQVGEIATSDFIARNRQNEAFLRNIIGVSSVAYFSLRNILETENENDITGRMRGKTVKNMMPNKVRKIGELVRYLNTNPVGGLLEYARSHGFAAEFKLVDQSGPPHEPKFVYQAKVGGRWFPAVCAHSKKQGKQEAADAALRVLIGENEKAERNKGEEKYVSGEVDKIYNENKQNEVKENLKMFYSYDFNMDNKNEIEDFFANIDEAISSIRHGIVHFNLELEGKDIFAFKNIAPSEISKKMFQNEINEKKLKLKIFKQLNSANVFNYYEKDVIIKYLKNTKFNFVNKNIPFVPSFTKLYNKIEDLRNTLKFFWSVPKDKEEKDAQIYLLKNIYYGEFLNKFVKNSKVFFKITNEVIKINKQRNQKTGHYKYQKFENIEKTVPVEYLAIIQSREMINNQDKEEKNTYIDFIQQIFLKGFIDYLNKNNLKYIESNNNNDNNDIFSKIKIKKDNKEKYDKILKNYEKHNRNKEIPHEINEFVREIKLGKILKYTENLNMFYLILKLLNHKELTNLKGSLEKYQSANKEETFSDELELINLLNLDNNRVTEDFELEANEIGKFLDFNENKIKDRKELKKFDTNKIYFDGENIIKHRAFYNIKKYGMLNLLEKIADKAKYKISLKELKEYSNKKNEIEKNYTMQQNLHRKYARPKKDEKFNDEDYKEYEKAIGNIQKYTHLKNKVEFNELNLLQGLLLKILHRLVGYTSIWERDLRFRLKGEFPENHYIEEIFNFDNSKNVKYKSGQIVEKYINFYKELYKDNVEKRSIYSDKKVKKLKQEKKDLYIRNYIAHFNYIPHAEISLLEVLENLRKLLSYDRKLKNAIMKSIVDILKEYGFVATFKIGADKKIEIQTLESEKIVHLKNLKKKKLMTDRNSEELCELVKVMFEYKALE

RBD #3L LwaCas13a [3] = target: T3, RBD #3L LwaCas13a (Leptotrichia wadei / Homo sapiens); test: as above; details: label: body 32P for EMSA
RBD #4L LwaCas13a [4] = target: T4, RBD #4L LwaCas13a (Leptotrichia wadei / Homo sapiens); test: as above; details: label: body 32P for EMSA
[5] = target: T5, RBD #2L LwaCas13a (hnRNP A1 1-104 in Loop 1) (Leptotrichia wadei / Homo sapiens); test: as above; details: label: body 32P for EMSA
dWT LwaCas13a [6] = target: T6, dWT LwaCas13a (Leptotrichia wadei, R1046A/H1051A); test: EMSA; crRNA complex; 5 mM MgCl2, 37 C; details: label: body 32P for EMSA
T6 chain: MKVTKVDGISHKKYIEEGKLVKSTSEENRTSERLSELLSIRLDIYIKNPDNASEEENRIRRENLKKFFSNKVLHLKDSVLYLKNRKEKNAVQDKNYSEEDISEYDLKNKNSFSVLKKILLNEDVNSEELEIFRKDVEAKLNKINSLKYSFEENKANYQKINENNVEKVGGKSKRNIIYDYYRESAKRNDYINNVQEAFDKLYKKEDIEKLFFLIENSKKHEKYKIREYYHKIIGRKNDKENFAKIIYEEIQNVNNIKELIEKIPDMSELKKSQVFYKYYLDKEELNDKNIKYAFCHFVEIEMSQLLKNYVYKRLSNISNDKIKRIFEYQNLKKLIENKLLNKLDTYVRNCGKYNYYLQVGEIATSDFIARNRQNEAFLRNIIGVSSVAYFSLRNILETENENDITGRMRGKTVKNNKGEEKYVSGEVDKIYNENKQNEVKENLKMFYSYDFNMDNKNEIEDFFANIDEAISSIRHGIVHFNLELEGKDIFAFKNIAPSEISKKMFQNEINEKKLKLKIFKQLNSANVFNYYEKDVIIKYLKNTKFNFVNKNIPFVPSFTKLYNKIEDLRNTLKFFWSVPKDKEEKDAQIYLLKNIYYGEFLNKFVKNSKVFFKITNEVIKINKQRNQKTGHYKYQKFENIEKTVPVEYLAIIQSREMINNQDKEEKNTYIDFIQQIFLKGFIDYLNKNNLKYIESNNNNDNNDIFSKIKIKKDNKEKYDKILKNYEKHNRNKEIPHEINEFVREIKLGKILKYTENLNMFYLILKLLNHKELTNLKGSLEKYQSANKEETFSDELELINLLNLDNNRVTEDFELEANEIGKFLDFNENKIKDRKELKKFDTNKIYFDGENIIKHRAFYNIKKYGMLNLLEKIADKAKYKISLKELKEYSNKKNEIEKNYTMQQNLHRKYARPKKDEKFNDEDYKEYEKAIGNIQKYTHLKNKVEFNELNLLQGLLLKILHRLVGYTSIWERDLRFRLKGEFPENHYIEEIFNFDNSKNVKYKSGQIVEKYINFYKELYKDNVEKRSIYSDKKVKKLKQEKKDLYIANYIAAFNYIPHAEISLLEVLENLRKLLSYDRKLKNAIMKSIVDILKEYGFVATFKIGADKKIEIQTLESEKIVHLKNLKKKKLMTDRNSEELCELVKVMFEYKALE

dWT LwaCas13a [7] = target: T6, dWT LwaCas13a; test: EMSA; crRNA complex; 50 mM Tris pH 8.0, 60 mM NaCl, 5 mM MgCl2, 37 C; details: label: body 32P
[8] = target: T1, RBD #6L LwaCas13a (ADAR1 126-202 in …); test: cleavage_in_vitro; collateral cleavage of RNaseAlert
RBD #3L LwaCas13a [9] = target: T3, RBD #3L LwaCas13a; test: as above
RBD #4L LwaCas13a [10] = target: T4, RBD #4L LwaCas13a; test: as above
[11] = target: T5, RBD #2L LwaCas13a (hnRNP A1 1-104 in …); test: as above

B1: cr1_N crRNA ; T1_N target (105 nt) (ssRNA ; ssRNA)
RNA 1: GACUACCCCAAAAACGAAGGGGACUAAAACAAUCUGAGGGUCCACCAAACGUAAUGCG
RNA 2: GUCUGAUAAUGGACCCCAAAAUCAGCGAAAUGCACCCCGCAUUACGUUUGGUGGACCCUCAGAUUCAACUGGCAGUAACCAGAAUGGAGAACGCAGUGGGGCGCG
Work on B1 yielded a binding signal [1] of 174 % higher than WT, a binding signal [2] of 59 % higher than WT and a binding signal (RBD #3L LwaCas13a [3]) of 468 % higher than WT. For the same binder, the binding signal (RBD #4L LwaCas13a [4]) was 518 % higher than WT, the binding signal [5] was 216 % higher than WT and the Kd (dWT LwaCas13a [6]) was 16 nM.

B2: cr1_N crRNA ; T26_N_2 target (36 nt) (ssRNA ; ssRNA)
RNA 1: B1 RNA 1
RNA 2: ACCCCGCAUUACGUUUGGUGGACCCUCAGAUUCAAC
In the case of B2, the Kd (dWT LwaCas13a [7]) is reported as 46 nM.

B3: cr3_ssRNA1_0 crRNA ; T3_ssRNA1 target (ssRNA ; ssRNA)
RNA 1: GACUACCCCAAAAACGAAGGGGACUAAAACUAGAUUGCUGUUCUACCAAGUAAUCCAU
RNA 2: GGCCAGUGAAUUCGAGCUCGGUACCCGGGGAUCCUCUAGAAAUAUGGAUUACUUGGUAGAACAGCAAUCUACUCGACCUGCAGGCAUGCAAGCUUGGCGUAAUCAUGGUCAUAGCUGUUUCCUGUGUUUAUCCGCUCACAAUUCCACACAACAUACGAGCCGGAAGCAUAAAG
Binder B3 has a binding signal [8] of 38 % higher than WT, a binding signal (RBD #3L LwaCas13a [9]) of 102 % higher than WT and a binding signal (RBD #4L LwaCas13a [10]) of 91 % higher than WT. It also gave a binding signal [11] of 59 % higher than WT.
